Experiment [1] has as its target T1, murine PD-L1 on CHO cells (murine, UniProt Q9EP73 19-290).
T1 construct: whole, on cells; also called CHO-PD-L1 cells
The experiment in a line: FIG. 4 legend: Octet avidity curves and FACS on CHO-PD-L1 cells. The method, then: (§1) Antibody Activity. Varying concentrations of PD-L1 antibodies, with human IgG1 backbones, were added to CHO cells expressing either human or murine PD-L1 (CHO-PD-L1 cells). Binding was detected by addition of anti-human IgG1 secondary antibody conjugated to phycoerythrin. FACS analysis was performed, detecting phycoerythrin to determine fluorescence activity at a variety of antibody concentrations. EC50 was calculated using GraphPad Prism® software.

A further experiment deals with T2, human PD-L1 on CHO cells (human, UniProt Q9NZQ7 19-290).
T2 construct: also called CHO-PD-L1 cells
The experiment in a line: FIG. 4: Octet avidity curves and FACS on CHO-PD-L1 cells. The method, then:
as §1

T2 sequence (Q9NZQ7 19-290 limits assumed): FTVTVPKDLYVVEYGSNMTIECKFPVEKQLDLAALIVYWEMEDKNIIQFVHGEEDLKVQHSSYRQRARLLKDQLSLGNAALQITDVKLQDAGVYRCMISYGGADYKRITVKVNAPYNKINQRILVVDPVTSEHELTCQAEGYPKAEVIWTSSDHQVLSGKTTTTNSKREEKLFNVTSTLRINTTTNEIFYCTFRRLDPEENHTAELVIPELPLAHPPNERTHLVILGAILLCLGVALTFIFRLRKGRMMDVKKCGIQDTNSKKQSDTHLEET
T1 sequence (Q9EP73 19-290): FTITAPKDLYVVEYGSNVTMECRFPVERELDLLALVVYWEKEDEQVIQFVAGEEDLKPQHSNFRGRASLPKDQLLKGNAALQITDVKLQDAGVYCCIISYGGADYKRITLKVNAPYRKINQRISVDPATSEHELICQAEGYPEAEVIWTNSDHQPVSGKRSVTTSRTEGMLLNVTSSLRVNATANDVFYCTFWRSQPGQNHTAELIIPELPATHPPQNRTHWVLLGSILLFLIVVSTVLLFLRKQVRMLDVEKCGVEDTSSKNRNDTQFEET

B1: ADI-20799 (antibody, human IgG1, V domains shown)
VH: QVQLVQSGAEVKKPGASVKVSCKASGYTFTGVYMHWVRQAPGQGLEWMGGIFPIGGTANYAQKFQGRVTITADESTSTAYMELSSLRSEDTAVYYCARDRTSGALYWGQGTLVTVSS
VL: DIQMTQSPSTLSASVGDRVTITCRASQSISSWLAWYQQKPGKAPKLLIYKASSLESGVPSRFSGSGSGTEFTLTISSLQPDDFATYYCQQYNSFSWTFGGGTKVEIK
Consider B1, for which the binding result (in experiment [1]; with human PD-L1 on CHO cells) was “binds” in each case.

The record behind these values is US20250320296A1 (published 2025).
